Experimental data published in US20020032322A1.

Biological target: TWIK-1 (human)
Assay: cell-based or functional assay

Substance | inhibition of TWIK-1 K+ currents (voltage clamp, Xenopus oocytes) [% inhibition]
apamin (from UniProt P01500 28-45) (peptide) | < 10
dedrotoxine (peptide) | < 10
charybdotoxine (from UniProt P13487 23-59) (peptide) | < 10
